Experimental data published in patent publication US20160031957A1 (UNITED STATES OF AMERICA AS REPRESENTED BY THE SECRETARY …, published 2016).

Columns and labels:
Test in all cases: interaction in ABC DLBCL cells expressing the RNF31 isoform; method not detailed
[1] = biological target: T1, RNF31 Q622L mutant expressed in ABC DLBCL cells (UniProt Q96EP0 1-1072)
T1 construct: Expressed in ABC DLBCL cells; also called RNF31 mutant
T1 sequence (looked up): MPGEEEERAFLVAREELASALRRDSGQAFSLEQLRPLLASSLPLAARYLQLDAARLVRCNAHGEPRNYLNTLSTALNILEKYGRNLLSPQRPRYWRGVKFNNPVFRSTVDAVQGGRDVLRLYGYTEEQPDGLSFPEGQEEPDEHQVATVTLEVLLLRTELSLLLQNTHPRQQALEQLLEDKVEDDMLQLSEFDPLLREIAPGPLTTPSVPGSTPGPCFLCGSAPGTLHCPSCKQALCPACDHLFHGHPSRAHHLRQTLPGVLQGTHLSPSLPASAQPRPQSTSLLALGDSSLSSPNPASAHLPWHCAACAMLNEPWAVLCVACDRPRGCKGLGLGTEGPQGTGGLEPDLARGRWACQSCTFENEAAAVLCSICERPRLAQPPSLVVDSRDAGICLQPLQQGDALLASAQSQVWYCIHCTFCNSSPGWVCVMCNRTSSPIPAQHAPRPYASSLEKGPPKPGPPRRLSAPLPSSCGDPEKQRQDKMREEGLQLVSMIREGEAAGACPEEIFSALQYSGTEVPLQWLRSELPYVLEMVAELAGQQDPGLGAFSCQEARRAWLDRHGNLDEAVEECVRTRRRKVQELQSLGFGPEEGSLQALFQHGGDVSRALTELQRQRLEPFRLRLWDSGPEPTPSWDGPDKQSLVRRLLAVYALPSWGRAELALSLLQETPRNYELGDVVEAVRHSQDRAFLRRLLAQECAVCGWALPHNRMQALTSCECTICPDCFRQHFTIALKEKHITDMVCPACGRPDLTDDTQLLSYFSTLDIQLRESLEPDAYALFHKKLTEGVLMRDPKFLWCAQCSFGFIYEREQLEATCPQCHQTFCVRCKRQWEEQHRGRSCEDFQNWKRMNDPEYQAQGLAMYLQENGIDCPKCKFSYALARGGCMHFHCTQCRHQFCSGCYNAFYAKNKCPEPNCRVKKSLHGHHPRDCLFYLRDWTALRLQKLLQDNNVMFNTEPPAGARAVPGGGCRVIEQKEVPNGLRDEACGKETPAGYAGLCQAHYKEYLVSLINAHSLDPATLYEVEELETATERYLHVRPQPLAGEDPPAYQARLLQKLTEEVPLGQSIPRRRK

[2] = biological target: T2, wild type RNF31 expressed in ABC DLBCL cells (UniProt Q96EP0 1-1072)
T2 sequence (looked up): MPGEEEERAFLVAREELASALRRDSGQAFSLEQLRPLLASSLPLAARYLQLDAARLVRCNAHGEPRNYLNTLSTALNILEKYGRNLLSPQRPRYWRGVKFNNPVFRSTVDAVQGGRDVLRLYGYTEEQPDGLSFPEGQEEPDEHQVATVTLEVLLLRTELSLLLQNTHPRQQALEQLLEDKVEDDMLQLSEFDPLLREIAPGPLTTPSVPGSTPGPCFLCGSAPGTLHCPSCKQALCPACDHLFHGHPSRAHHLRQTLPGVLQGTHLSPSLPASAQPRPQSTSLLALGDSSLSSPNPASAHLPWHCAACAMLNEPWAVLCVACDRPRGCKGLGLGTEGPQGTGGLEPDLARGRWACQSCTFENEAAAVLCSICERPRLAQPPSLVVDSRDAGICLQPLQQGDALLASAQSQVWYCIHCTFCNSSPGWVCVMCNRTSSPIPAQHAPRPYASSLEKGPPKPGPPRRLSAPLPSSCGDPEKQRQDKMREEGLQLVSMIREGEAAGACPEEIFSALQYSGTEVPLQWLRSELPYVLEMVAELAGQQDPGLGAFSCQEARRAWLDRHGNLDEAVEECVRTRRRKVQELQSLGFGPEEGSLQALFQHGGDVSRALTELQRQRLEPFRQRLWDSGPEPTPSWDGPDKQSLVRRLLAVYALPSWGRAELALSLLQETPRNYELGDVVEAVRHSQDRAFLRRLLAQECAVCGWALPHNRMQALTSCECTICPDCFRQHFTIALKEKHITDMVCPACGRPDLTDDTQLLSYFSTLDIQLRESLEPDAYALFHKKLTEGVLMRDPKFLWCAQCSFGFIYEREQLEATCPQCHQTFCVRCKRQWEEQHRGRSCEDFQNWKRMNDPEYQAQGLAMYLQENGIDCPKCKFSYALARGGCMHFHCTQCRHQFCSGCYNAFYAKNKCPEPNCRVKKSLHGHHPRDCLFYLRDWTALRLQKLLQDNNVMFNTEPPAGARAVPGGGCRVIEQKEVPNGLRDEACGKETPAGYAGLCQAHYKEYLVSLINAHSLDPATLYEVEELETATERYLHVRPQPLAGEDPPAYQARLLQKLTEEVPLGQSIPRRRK

[3] = biological target: T3, RNF31 Q584H mutant expressed in ABC DLBCL cells (UniProt Q96EP0 1-1072)
T3 construct: Expressed in ABC DLBCL cells; also called RNF31 mutant
T3 sequence (looked up): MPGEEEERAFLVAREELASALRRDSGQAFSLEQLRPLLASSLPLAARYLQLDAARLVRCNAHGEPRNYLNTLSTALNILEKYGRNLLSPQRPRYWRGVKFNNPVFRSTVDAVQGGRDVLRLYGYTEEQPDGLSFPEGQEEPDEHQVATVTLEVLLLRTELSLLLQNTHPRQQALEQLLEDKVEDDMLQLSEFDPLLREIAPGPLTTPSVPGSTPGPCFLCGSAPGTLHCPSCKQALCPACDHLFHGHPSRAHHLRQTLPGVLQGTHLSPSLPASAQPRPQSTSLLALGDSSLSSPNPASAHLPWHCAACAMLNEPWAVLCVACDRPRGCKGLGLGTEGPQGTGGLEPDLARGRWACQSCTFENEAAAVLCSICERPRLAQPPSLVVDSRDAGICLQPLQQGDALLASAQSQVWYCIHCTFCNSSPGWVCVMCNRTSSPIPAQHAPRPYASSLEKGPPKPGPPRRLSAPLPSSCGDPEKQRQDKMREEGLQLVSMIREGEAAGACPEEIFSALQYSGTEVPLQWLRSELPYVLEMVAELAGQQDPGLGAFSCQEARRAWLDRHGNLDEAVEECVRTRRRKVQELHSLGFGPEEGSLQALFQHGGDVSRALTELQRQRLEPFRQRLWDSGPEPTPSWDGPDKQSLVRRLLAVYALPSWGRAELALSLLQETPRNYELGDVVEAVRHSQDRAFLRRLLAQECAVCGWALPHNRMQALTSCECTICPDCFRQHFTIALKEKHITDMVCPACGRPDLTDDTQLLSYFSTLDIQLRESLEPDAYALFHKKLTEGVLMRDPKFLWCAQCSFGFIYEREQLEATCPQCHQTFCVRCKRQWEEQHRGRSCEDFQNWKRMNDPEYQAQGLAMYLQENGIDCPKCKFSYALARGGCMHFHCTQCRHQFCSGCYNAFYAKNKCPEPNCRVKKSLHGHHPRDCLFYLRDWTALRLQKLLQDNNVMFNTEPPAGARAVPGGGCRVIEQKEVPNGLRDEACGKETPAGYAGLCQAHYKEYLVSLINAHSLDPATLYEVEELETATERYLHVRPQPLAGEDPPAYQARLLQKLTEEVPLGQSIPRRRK

Measured: binding result

B1: MALT1 (enzyme, UniProt Q9UDY8 2-824, looked up)
chain: SLLGDPLQALPPSAAPTGPLLAPPAGATLNRLREPLLRRLSELLDQAPEGRGWRRLAELAGSRGRLRLSCLDLEQCSLKVLEPEGSPSLCLLKLMGEKGCTVTELSDFLQAMEHTEVLQLLSPPGIKITVNPESKAVLAGQFVKLCCRATGHPFVQYQWFKMNKEIPNGNTSELIFNAVHVKDAGFYVCRVNNNFTFEFSQWSQLDVCDIPESFQRSVDGVSESKLQICVEPTSQKLMPGSTLVLQCVAVGSPIPHYQWFKNELPLTHETKKLYMVPYVDLEHQGTYWCHVYNDRDSQDSKKVEIIIGRTDEAVECTEDELNNLGHPDNKEQTTDQPLAKDKVALLIGNMNYREHPKLKAPLVDVYELTNLLRQLDFKVVSLLDLTEYEMRNAVDEFLLLLDKGVYGLLYYAGHGYENFGNSFMVPVDAPNPYRSENCLCVQNILKLMQEKETGLNVFLLDMCRKRNDYDDTIPILDALKVTANIVFGYATCQGAEAFEIQHSGLANGIFMKFLKDRLLEDKKITVLLDEVAEDMGKCHLTKGKQALEIRSSLSEKRALTDPIQGTEYSAESLVRNLQWAKAHELPESMCLKFDCGVQIQLGFAAEFSNVMIIYTSIVYKPPEIIMCDAYVTDFPLDLDIDPKDANKGTPEETGSYLVSKDLPKHCLYTRLSSLQKLKEHLVFTVCLSYQYSGLEDTVEDKQEVNVGKPLIAKLDMHRGLGRKTCFQTCLMSNGPYQSSAATSGGAGHYHSLQDPFHGVYHSHPGNPSNVTPADSCHCSRTPDAFISSFAHHASCHFSRSNVPVETTDEIPFSFSDRLRISEK
notes: Endogenous protein in cell lysates
binds: all assays above
